Measurements reported in US20210380702A1 (Regeneron, published 2021).
Positions count from the first letter of the chain named.

B1: H1H8314N (antibody, human IgG1, V domains shown)
VH: EVQLVESGGGVVRPGGSLRLSCAASGFTFDDYGMTWVRQAPGRGLEWVSGIHWHGKRTGYADSVKGRFTISRDNAKKSLYLQMNSLKGEDTALYHCVRGGMSTGDWFDPWGQGTLVIVSS
VL: DIQMTQSPSSLSASLGDRVTITCRASQSINSYLNWYQQKPGKAPKLLIYVASSLQSGVPSRFSGSGSGTEFTLTISNLQPEDFATYYCQQSYSTPPITFGQGTRLEIK
B2: H1H8323N (antibody, human IgG1, V domains shown)
VH: QVQLVQSGAEVKMPGSSVRVSCKASGGIFSSSTISWVRQAPGQGLEWMGEIIPVFGTVNYAQKFQDRVIFTADESTTTAYMELSSLKSGDTAVYFCARNWGLGSFYIWGQGTMVTVSS
VL: EIVLTQSPGTLSLSPGERATLSCRASQSFNFNYLAWYQQKPGQAPRLLIYGASSRATGIPDRFSGSGSGTDFTLTINRLEPEDFGVFYCQQYESAPWTFGQGTKVEIK
B3: H1H9329P (antibody, human IgG1, V domains shown)
VH: EVQLVESGGGLVQSGGSLRLSCAASGFTFSSYWMSWVRQAPGKGLEWVANIKQDGSEKYYVDSVKGRFTISRDNAKNSLYLQMNSLRADDTAVYYCARDDIVVVPAPMGYYYYYFGMDVWGQGTTVTVSS
VL: DIQMTQSPSSLSASVGDRVTITCRASQGIRNDLGWYQQKPGKAPKRLIYAASSLQSGVPSRFSGSGSGTEFTLTISSLQPEDFATYYCLQHNSYPYTFGQGTKLEIK
B4: H2aM8312N (antibody, mouse IgG2, V domains shown)
VH: QVHLVQSGAEVKKPGASVKVSCKASGYTFTGYYIHWVRQAPGHGLEWMGWLNPNTGTTKYIQNFQGRVTMTRDTSSSTAYMELTRLRSDDTAVYYCARDEDWNYGSWFDTWGQGTLVTVSS
VL: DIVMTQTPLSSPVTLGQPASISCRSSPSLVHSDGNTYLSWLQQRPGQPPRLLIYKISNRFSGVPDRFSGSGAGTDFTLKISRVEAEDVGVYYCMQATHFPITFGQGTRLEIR
notes: also called H2M8312N
B5: H2aM8314N (antibody, mouse IgG2, V domains shown)
VH: B1 VH
VL: B1 VL
notes: also called H2M8314N
B6: H2aM8317N (antibody, mouse IgG2, V domains shown)
VH: EVQLVESGGGLVQPGGSLRLSCAASGFTVGSNYMNWVRQAPGKGLEWVSVIYSGGSTYYADSVKGRFTISRLTSKNTLYLQMSSLRPEDTAVYYCARGIRGLDVWGQGTTVTVSS
VL: B1 VL with L15V, S28T, S31I, K42R, K45R, V50A, E70D, N77S, Q89H
notes: also called H2M8317N
B7: H2aM8321N (antibody, mouse IgG2, V domains shown)
VH: EERLVESGGDLVQPGGSLRLSCAASGITVGTNYMNWVRQAPGKGLEWVSVISSGGNTHYADSVKGRFIMSRQTSKNTLYLQMNSLETEDTAVYYCARGIRGLDVWGQGTMVTVSS
VL: B1 VL with L15V, I29M, N30S, K42R, Y49F, V50A, E70D, N77S
notes: also called H2M8321N
B8: H2aM8310N (antibody, mouse IgG2, V domains shown)
VH: QVQLVQSGAEVKKPGASVQVSCKASGYSFTGYYIHWVRQAPGQGLEWMGWINPNSGTKKYAHKFQGRVTMTRDTSIDTAYMILSSLISDDTAVYYCARDEDWNFGSWFDSWGQGTLVTVSS
VL: DIVMTQTPLSSPVTLGQPASISCRSSQTLVHGDGNTYLSWIQQRPGQPPRLLIYKVSNQFSGVPDRFSGSGAGTDFTLKISRVEAEDVGLYFCMQATHFPITFGQGTRLEIK
notes: also called H2M8310N
B9: H2aM8323N (antibody, mouse IgG2, V domains shown)
VH: B2 VH
VL: B2 VL
notes: also called H2M8323N
B10: H2aM8309N (antibody, mouse IgG2, V domains shown)
VH: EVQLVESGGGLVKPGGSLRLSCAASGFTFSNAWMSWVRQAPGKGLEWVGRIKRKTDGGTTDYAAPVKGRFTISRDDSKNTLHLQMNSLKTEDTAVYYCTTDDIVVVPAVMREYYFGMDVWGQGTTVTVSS
VL: B3 VL with A25T, S93N
notes: also called H2M8309N

The binders below were run against T1, recombinant cynomolgus monkey PD-L1 with a C-terminal mouse IgG2a Fc tag (cynomolgus monkey (Macaca fascicularis)) (assay: SPR (Biacore), mAb captured, 25C).
T1 construct: also called MfPD-L1-mFc; monkey PD-L1-mFc
T1 sequence (chain, as listed by the source limits assumed): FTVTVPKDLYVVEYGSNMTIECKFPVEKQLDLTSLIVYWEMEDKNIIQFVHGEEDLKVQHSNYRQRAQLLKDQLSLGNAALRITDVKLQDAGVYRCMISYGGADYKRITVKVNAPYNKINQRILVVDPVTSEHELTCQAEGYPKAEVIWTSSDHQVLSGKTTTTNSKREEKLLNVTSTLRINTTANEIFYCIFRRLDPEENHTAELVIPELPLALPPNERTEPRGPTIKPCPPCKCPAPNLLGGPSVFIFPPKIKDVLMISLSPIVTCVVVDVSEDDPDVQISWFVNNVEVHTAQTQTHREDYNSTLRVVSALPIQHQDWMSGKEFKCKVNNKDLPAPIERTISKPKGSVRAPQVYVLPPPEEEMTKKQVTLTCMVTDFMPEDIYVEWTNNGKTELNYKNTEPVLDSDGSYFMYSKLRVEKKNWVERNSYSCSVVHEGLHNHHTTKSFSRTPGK
Description: (§1) Binding association and dissociation rate constants (kₐ and kd, respectively), equilibrium dissociation constants and dissociation half-lives (KD and t_{1/2}, respectively) of antigen binding to purified anti-PD-L1 monoclonal antibodies were determined using a real-time surface plasmon resonance biosensor assay on a Biacore 4000 instrument. The Biacore sensor surface was either derivatized with polyclonal rabbit anti-mouse antibody (GE, #BR-1008-38) or with monoclonal mouse anti-human Fc antibody (GE, #BR-1008-39) to capture approximately 200-300 RUs of anti-PD-L1 monoclonal antibodies, expressed with either a mouse Fc or with human Fc, respectively. […] Different concentrations of PD-L1 reagents were injected over the anti-PD-L1 monoclonal antibody captured surface at a flow rate of 30 μL/min. The binding of the PD-L1 reagents to the captured monoclonal antibodies was monitored for 3 to 4 minutes while the dissociation of antibody bound PD-L1 reagents was monitored for 10 minutes in HBST running buffer (0.01 M HEPES pH 7.4, 0.15 M NaCl, 3 mM EDTA, 0.05% v/v Surfactant tween-20). Experiments were performed at either 25° C. or 37° C. Kinetic association (kₐ) and dissociation (kd) rate constants were determined by processing and fitting the data to a 1:1 binding model using Scrubber 2.0c curve fitting software. Binding dissociation equilibrium constants (KD) and dissociative half-lives (t_{1/2}) were then calculated from the kinetic rate constants as: KD (M)=kd/kₐ and t_{1/2} (min)=[In2/(60*kd)].

Row | Kd [nM] | koff [s⁻¹] | kon [M⁻¹ s⁻¹] | t1/2 [min] | Binder
1 | 0.0263 | 6.77e-05 | 2.58e+06 | 171 | B1
2 | 0.0231 | 6.16e-05 | 2.67e+06 | 188 | B2
3 | 0.386 | 0.000672 | 1.74e+06 | 17 | B3

These binders were tested against T2, Human PD-L1 Dimer (human, UniProt Q9NZQ7 19-239) (assay: SPR (Biacore), mAb captured, 25C).
T2 construct: also called hPD-L1 dimer; hPD-L1-hFc
T2 sequence (Q9NZQ7 19-239): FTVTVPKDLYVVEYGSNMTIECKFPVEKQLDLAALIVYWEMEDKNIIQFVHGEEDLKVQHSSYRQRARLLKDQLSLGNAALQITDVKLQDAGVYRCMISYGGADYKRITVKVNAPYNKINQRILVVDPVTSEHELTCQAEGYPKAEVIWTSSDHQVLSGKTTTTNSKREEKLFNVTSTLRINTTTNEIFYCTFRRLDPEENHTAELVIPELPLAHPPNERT
Description: as §1

Row | Kd [nM] | koff [s⁻¹] | kon [M⁻¹ s⁻¹] | t1/2 [min] | Binder
4 | 0.413 | 0.000102 | 247000 | 113 | B4
5 | 0.00426 | 1.35e-05 | 3.16e+06 | 859 | B5
6 | 1.25 | 0.00045 | 359000 | 26 | B6
7 | 0.353 | 0.000287 | 813000 | 40 | B7
8 | 0.183 | 5.71e-05 | 313000 | 202 | B8
9 | 0.00704 | 2.05e-05 | 2.91e+06 | 565 | B9
10 | 0.0429 | 0.000144 | 3.36e+06 | 80 | B10
11 | 0.259 | 0.000768 | 2.97e+06 | 15 | B3

These binders were tested against T3, recombinant cynomolgus monkey PD-L1 with a C-terminal myc-myc-hexahistidine tag (cynomolgus monkey (Macaca fascicularis)) (assay: SPR (Biacore), mAb captured, 25C).
T3 construct: also called MfPD-L1-MMH; MfPD-L1-MMH Monomer
T3 sequence (chain, as listed by the source limits assumed): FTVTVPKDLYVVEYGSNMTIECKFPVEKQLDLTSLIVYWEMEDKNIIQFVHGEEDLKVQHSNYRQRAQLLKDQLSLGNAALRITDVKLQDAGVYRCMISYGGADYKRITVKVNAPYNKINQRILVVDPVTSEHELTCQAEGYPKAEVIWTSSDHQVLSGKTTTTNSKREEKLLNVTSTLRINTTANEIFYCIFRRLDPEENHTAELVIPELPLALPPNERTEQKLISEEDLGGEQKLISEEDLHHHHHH
Description: as §1

Row | Kd [nM] | koff [s⁻¹] | kon [M⁻¹ s⁻¹] | t1/2 [min] | Binder
12 | 8.42 | 0.000597 | 70900 | 19 | B4
13 | 0.0724 | 7e-05 | 966000 | 165 | B5
14 | 226 | 0.0238 | 106000 | 0.5 | B6
15 | 29.9 | 0.00402 | 134000 | 2.9 | B7
16 | 2.97 | 0.000306 | 103000 | 38 | B8
17 | 15.9 | 0.00868 | 547000 | 1.3 | B9
18 | 14.9 | 0.013 | 870000 | 0.9 | B10
19 | 76.9 | 0.135 | 1.76e+06 | 0.09 | B3

Each binder was assayed against T2, Human PD-L1 Dimer (assay: SPR (Biacore), mAb captured, 37C).
Description: as §1

Row | Kd [nM] | koff [s⁻¹] | kon [M⁻¹ s⁻¹] | t1/2 [min] | Binder
20 | 0.732 | 0.000261 | 357000 | 44 | B4
21 | 0.00591 | 2.3e-05 | 3.89e+06 | 503 | B5
22 | 1.36 | 0.000657 | 481000 | 18 | B6
23 | 0.285 | 0.000269 | 946000 | 43 | B7
24 | 0.258 | 0.000124 | 481000 | 93 | B8
25 | 0.028 | 0.000121 | 4.32e+06 | 96 | B9
26 | 0.0376 | 0.000166 | 4.41e+06 | 70 | B10
27 | 0.689 | 0.00267 | 3.87e+06 | 4.3 | B3

Each binder was assayed against T4, recombinant human PD-L1 (amino acids 19-239 of NP_054862.1) with a C-terminal myc-myc-hexahistidine tag (human) (assay: SPR (Biacore), mAb captured, 37C).
T4 construct: also called hPD-L1-MMH; hPD-L1-MMH Monomer
T4 sequence (chain, as listed by the source limits assumed): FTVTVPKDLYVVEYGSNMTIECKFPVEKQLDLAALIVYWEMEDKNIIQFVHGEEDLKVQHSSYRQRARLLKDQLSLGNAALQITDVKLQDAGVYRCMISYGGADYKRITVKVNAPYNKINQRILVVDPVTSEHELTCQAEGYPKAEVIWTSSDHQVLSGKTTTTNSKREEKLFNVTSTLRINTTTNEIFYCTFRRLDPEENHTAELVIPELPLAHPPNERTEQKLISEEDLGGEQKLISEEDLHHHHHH
Description: as §1

Row | Kd [nM] | koff [s⁻¹] | kon [M⁻¹ s⁻¹] | t1/2 [min] | Binder
28 | 45.3 | 0.00403 | 88900 | 2.9 | B4
29 | 0.14 | 0.00015 | 1.07e+06 | 77 | B5
30 | 647 | 0.0585 | 90300 | 0.2 | B6
31 | 91.6 | 0.00929 | 101000 | 1.2 | B7
32 | 9.7 | 0.00128 | 132000 | 9 | B8
33 | 0.497 | 0.000684 | 1.38e+06 | 17 | B9
34 | 29.7 | 0.0314 | 1.06e+06 | 0.4 | B10
35 | 117 | 0.329 | 2.82e+06 | 0.04 | B3

These binders were tested against T3, recombinant cynomolgus monkey PD-L1 … (assay: SPR (Biacore), mAb captured, 37C).
Description: as §1

Row | Kd [nM] | koff [s⁻¹] | kon [M⁻¹ s⁻¹] | t1/2 [min] | Binder
36 | 32.7 | 0.00332 | 101000 | 3.5 | B4
37 | 0.142 | 0.000152 | 1.07e+06 | 76 | B5
38 | 179 | 0.0476 | 266000 | 0.2 | B6
39 | 51.1 | 0.00816 | 159000 | 1.4 | B7
40 | 2.27 | 0.00107 | 471000 | 11 | B8
41 | 29.5 | 0.0282 | 956000 | 0.4 | B9
42 | 26.3 | 0.0281 | 1.07e+06 | 0.4 | B10
43 | 137 | 0.364 | 2.66e+06 | 0.03 | B3
